# Patent publication US20240101647A1 (VIB VZW, published 2024)
# B1: VHH3.183 (VHH)
# VHH: QVQLQESGGGLVQPGGSLRLSCAASGLDYYAIGWFRQAPGKEREGLSRIESSDGSTYYADSVKGRFTISRDNTKNTVYLQMNSLKPEDTAVYYCATDPIIQGSSWYWTSWGQGTQVTVSS
# B2: VHH3.94 (VHH)
# VHH: QVQLQESGGGLVQPGGSLRLSCAASGKAVSISDMGWYRQPPGKQRELVATITKSGSTNYANSAQGRFTISRDNAKSAVYLEMNSLKPEDTAVYYCNAWLPYGMGPDYYGMELWGEGTQVTVSS
# B3: VHH3.89 (VHH)
# VHH: QVQLQESGGGLVQPGGSLRLSCAASGFTLDYYAIGWFREVPGKEREGLSRIDSSDGSTYYADSVKGRFTISRDNTKNIVYLQMNNLKPEDTAVYYCATDPIIQGRNWYWTGWGQGTQVTVSS
# Assays:
# [1] = biological target: T1, monomeric human Fc-fused SARS-CoV-2_RBD-SD1 (SARS-CoV-2, UniProt P0DTC2 319-591)
# [2] = biological target: T1, monomeric human Fc-fused …; test: ELISA with periplasmic extract, RBD captured by VHH72-Fc
binder,measurement,setting,value
B1,koff,[1],0.0014 s⁻¹
B2,binding result,[2],binds
B3,Kd,[1],0.292 nM
